The record followed here is article PMC9279156, “A peroxisomal ubiquitin ligase complex forms a retrotranslocation channel” (Nature, 2022).

This assay has as its target T1, T. thermophilus Pex12 (1–439) with an N-terminal SBP tag (Thermothelomyces thermophilus, UniProt G2Q5N0 1-439).
T1 construct: Pex12 of Thermothelomyces thermophilus, residues 1-439; codon-optimised synthetic gene; the SBP tag is followed by a HRV3C protease cleavage site; also called T.t; Pex12; source: P. pastoris SMD1168, co-expressed with Pex2 and Pex10, purified (streptavidin resin, gel filtration) in digitonin; not shown: SBP, N-terminal, kept
T1 sequence (looked up): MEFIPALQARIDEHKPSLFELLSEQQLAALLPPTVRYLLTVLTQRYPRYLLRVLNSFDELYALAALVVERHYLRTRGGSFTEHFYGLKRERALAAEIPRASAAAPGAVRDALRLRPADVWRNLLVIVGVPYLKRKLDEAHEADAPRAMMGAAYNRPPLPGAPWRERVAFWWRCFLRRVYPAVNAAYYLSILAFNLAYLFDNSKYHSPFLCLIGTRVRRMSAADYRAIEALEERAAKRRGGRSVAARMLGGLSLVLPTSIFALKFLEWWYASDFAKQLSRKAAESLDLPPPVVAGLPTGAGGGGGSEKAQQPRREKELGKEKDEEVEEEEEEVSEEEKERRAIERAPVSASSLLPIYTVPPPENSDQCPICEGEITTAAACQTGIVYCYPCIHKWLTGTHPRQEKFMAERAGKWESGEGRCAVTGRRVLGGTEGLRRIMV
As to the kind of experiment: pull-down + SEC; Pex2, Pex10 and SBP-Pex12 co-expressed in P. pastoris; membranes solubilised in 1% LMNG; captured on streptavidin resin through SBP-Pex12, eluted with biotin, gel filtration (Superose 6) in 25 mM HEPES pH 7.4, 150 mM NaCl, 0.05% digitonin; fractions by SDS-PAGE and Coomassie staining. The note with it: partners not purified. (SEC sorts molecules by how far they enter the pores of the column.)

B1: T. thermophilus Pex2 (140–495) (domain or fragment, Thermothelomyces thermophilus, UniProt G2Q1C9 140-495, looked up)
chain: SREGTRPAFRVGQVDAELLDEELVELLRGQVREALRYVGGGGGGGGGGGGGGVGSGVAQDWEAEISLALRAVLFKLTVWDHDATYGAALQNLKYTDARRDGPALAPPSRWQKALYGLVTVGGRYLWAKWEDWLLEQDDGFEGPSPRVKRLARWTSALSTLHASAALVSFLVFLLHGRYRTLLDRLLRMRLAPPTSQVSREVSFEYLNRQLVWHAFTEFLLFVLPLVGINRWRRWLARTWRRTKKIMTADADGGAGDKKGEYSFLPERTCAICYRDQNSASSETELLAAASGGVVGSAQTDITNPYEAIPCGCTYCFVCLATRIEREEGEGWPCLRCGELIKECKPWNGDVLEEPQV
notes: Pex2 of Thermothelomyces thermophilus, residues 140-495; codon-optimised synthetic gene; also called T.t; Pex2; source: P. pastoris SMD1168, co-expressed with Pex10 and Pex12, purified (streptavidin resin, gel filtration) in digitonin
Take B1: the stoichiometry N (usually a count of units in the complex or per binding partner) amounted to 1.

B2: T. thermophilus Pex10 (1–454) (natural protein, Thermothelomyces thermophilus, UniProt G2Q0E2 1-454, looked up)
chain: MATQPPPARPPPPLTSSPYPYAAAPDIIRAHQKDAYFQGVLANRLSDLHRRLRGARSAHAWAAETRTFAAALYLCLTTLLGNRTLGEEYCDLVQVEEAPSKLFASSSSKAADDHIYENGLGGGGDGGPLLPSLPRRAGYILTAIVLPHLASRALPSVRSAIRKRLQSRLATLSRRRQQTGTKSGSGRGGRGGGGGITEYRVLRYLLTHLTPLTSGAHFRAATLAVFYFTGAYYELSKWVWGLRYVFTTRAGRVVDDDHNRHHHSPQHGGGNGGRAGYEVLGVLLVVQMAVRAWLHVREQLSSGSVAGGGGEEEEDGEDGFRERTAFGPGTNVDVSLDEHAFTSNNELLGGGGGGGGSSSQRSLGEIGAMAHTPVLKAGRARYDLGTSDKVMGWIKGAQQRKCTLCLEELKDPAATQCGHVFCWACIGDWVREKPECPLCRREAMVQHILPLRAA
notes: Pex10 of Thermothelomyces thermophilus, residues 1-454; codon-optimised synthetic gene; also called T.t; Pex10; source: P. pastoris SMD1168, co-expressed with Pex2 and Pex12, purified (streptavidin resin, gel filtration) in digitonin
With B2, the “stoichiometry N” value was determined as 1.
